Data published in patent US20230218738A1 (Pfizer, published 2023).

Tests used:
Assay in all cases: BLI (Octet), F on anti-HIS tip, 20 nM mAb
[1] = molecular target: T1, RSV F protein mutant pXCS890 (RSV A2, UniProt P03420 26-109)
T1 chain 1: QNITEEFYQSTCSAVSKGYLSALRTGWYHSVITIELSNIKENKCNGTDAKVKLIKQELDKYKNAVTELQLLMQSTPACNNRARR
T1 chain 2: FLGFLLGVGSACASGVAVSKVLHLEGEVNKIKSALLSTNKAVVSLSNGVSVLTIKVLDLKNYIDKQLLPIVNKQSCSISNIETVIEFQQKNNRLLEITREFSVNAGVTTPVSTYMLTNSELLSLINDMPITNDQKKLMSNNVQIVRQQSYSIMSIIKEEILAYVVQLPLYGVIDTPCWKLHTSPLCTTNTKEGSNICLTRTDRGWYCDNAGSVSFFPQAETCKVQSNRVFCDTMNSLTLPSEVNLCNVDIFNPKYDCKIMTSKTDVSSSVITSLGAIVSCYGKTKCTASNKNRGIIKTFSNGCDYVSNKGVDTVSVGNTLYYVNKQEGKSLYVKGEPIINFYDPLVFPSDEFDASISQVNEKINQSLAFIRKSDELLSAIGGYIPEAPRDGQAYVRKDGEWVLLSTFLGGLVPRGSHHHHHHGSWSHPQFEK

[2] = molecular target: T2, RSV F protein mutant pXCS855 (RSV A2, UniProt P03420 26-109)
T2 chain 1: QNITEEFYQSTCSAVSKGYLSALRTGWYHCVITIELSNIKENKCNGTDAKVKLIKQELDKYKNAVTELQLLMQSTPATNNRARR
T2 chain 2: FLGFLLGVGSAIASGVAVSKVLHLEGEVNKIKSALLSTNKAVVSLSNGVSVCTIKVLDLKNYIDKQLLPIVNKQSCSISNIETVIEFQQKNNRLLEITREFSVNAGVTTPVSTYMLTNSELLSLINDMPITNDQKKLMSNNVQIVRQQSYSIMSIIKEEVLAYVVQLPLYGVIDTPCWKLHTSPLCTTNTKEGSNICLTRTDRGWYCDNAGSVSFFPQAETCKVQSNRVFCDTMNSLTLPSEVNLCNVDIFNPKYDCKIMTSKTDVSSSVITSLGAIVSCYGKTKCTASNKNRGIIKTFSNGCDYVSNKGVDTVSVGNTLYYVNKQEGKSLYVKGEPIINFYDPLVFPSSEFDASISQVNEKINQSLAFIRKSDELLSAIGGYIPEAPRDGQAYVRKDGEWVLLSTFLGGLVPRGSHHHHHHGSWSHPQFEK

[3] = molecular target: T3, RSV F protein mutant pXCS830 (RSV A2, UniProt P03420 26-109)
T3 chain 1: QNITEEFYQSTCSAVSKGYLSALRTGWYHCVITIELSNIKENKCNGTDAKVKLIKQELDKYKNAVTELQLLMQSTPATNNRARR
T3 chain 2: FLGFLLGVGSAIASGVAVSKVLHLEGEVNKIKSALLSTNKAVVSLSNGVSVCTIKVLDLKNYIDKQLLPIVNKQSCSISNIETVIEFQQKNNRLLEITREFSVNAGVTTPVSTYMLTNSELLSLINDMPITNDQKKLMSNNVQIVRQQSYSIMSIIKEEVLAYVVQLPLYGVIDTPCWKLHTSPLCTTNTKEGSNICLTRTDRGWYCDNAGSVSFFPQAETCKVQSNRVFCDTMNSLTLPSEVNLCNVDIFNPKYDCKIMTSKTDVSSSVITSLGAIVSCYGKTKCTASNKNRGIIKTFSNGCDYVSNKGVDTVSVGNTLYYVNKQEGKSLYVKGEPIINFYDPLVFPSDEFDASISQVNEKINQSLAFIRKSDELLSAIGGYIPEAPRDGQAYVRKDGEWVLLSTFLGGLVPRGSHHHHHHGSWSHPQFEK

[4] = molecular target: RSV F protein mutant pXCS889 (RSV A2, UniProt P03420 26-109)
[5] = molecular target: T4, RSV F protein mutant pXCS785 (RSV A2, UniProt P03420 26-109)
T4 chain 1: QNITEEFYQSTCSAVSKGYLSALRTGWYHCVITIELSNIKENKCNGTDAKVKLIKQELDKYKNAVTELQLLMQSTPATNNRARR
T4 chain 2: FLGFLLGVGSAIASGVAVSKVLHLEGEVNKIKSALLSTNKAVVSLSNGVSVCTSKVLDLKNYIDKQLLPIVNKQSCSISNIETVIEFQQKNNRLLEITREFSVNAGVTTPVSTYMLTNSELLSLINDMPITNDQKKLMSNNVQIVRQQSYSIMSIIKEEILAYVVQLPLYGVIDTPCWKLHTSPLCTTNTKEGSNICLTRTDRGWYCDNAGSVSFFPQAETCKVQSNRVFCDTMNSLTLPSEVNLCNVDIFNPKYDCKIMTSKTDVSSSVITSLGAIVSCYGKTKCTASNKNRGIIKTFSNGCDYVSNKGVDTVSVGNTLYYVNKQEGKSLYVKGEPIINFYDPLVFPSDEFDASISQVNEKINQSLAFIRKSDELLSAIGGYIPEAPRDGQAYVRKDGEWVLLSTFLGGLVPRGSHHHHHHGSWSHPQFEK

[6] = molecular target: RSV F protein mutant pXCS884 (RSV A2, UniProt P03420 26-109)
[7] = molecular target: T5, RSV F protein mutant pXCS752 (RSV A2, UniProt P03420 26-109)
T5 chain 1: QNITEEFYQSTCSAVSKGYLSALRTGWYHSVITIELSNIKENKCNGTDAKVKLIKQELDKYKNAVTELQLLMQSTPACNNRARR
T5 chain 2: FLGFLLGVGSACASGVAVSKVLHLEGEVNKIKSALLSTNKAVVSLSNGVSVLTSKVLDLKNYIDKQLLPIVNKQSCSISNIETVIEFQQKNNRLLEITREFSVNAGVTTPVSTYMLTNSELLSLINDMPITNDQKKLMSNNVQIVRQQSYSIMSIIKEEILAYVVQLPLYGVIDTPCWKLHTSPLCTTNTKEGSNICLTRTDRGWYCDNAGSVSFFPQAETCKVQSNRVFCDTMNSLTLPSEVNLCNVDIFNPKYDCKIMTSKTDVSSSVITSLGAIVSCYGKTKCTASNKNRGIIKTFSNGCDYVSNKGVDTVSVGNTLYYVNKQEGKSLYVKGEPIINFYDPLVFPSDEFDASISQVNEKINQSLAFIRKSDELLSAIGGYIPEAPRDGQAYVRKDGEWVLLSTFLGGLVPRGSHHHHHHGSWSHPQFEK

Binder	Response (nm shift) [1] [nm]	Response (nm shift) [2] [nm]	Response (nm shift) [3] [nm]	Response (nm shift) [4] [nm]	Response (nm shift) [5] [nm]	Response (nm shift) [6] [nm]	Response (nm shift) [7] [nm]
MPE8 (antibody, V domains shown, also called MPEG) VH: EVQLVESGGGLVKPGGSLRLSCAASGFTFSSYSMNWVRQAPGKGLEWVSSISASSSYSDYADSAKGRFTISRDNAKTSLFLQMNSLRAEDTAIYFCARARATGYSSITPYFDIWGQGTLVTVSS VL: QSVVTQTPSVSGAPGQRVTISCTGSSSNIGAGYDVHWYQQLPGTAPKLLIYDNNNRPSGVPDRFSASKSGTSASLAITGLQAEDEADYYCQSYDRNLSGVFGTGTKVTVL	0.999	0.982	0.923	0.889	0.937	0.784	0.703
AM22 (antibody, V domains shown) VH: QVQLVQSGAEVKKPGATVKVSCKISGHTLIKLSIHWVRQAPGKGLEWMGGYEGEVDEIFYAQKFQHRLTVIADTATDTVYMELGRLTSDDTAVYFCGTLGVTVTEAGLGIDDYWGQGTLVTVSS VL: EIVLTQSPGTLSLSPGERATLSCRASQIVSRNHLAWYQQKPGQAPRLLIFGASSRATGIPVRFSGSGSGTDFTLTINGLAPEDFAVYYCLSSDSSIFTFGPGTKVDFK	0.538	0.523	0.465	0.477	0.465	0.323	0.234
